Results: patent US20180066066A1 (University of Texas, published 2018)

How the values were obtained:
[1] = target: T1, human HER3 receptor on cells (human, UniProt P21860 20-1342); test: cell-based or functional assay
[2] = target: T2, human HER3/ErbB3 extracellular domain (human, UniProt P21860 20-643); test: SPR, Biacore T-100; antibody captured by anti-rabbit IgG, recombinant human HER3 as analyte
T2 construct: extracellular domain; the range 1-643 of M34309 is printed only for the immunogen; also called Human HER3 ECD; recombinant human HER3
T2 sequence (P21860 20-643): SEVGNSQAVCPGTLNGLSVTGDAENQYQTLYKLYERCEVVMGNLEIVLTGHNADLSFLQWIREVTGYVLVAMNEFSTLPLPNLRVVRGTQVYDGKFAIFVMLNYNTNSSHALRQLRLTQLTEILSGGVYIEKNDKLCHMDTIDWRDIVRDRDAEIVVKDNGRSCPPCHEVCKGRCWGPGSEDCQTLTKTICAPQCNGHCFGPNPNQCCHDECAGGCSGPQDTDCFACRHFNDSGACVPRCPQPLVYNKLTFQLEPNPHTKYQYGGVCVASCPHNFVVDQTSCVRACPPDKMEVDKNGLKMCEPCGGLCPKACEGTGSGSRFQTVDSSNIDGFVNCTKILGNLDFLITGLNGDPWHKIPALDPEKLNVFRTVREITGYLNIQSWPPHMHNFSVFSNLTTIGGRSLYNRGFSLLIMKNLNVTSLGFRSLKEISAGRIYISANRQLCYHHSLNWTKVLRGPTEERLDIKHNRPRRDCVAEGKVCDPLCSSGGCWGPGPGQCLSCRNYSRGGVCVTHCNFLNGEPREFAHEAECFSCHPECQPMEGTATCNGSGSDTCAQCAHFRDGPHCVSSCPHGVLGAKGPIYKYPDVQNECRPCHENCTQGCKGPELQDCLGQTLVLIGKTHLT
Method: All experiments were performed at 25° C. at a flow rate of 45 μl/min. To prepare a BIAcore assay, an anti-rabbit IgG antibody (50 μg/ml each in acetate buffer, pH 5.0) was immobilized onto a carboxymethyl dextran sensorchip (CM5) using amine coupling procedures as described by the manufacturer. Purified rabbit Mabs to be tested were diluted at a concentration of 5 μg/ml in 0.5% P20, HBS-EP buffer and injected on FC2 to reach 500 to 1000 RU. FC1 was used as the reference cell. Specific signals correspond to the difference of signals obtained on FC2 versus FC1. The analyte (recombinant human HER3, apparent molecular weight 97 kDa on SDS-PAGE gel) was injected during 90 sec at series of concentration dilutions (100, 50, 25, 12.5, 6.25, and 3.13, 1.56 nM) in 0.5% P20, HBS-EP buffer. These concentrations were prepared from stock solution in 0.5% P20, HBS-EP. The dissociation phase of the analyte was monitored over a 30 minute period. Running buffer was also injected under the same conditions as a double reference. After each running cycle, both flow cells were regenerated by injecting 20 to 45 μl of glycine-HCl buffer pH 1.5. Binding KD on HER3 was calculated by koff/kon kinetic rate for each HER3 monoclonal antibody (Table 2).

[3] = target: T1, human HER3 receptor on cells; test: cell-based or functional assay; remark: listed apart in the source
[4] = target: T3, Her3/His10 receptor (UniProt P21860 20-643, limits assumed); test: AlphaScreen, blocking of biotinylated NRG-1beta binding to Her3/His10 (column head prints EC50, title and text IC50)
T3 construct: extracellular domain; also called HER3 ECD tagged with 10 histidine (His); not shown: tag of 10 histidines
T3 sequence (P21860 20-643 limits assumed): as the sequence (P21860 20-643) above
Method: HER3 ligand neuregulin (NRG1) can bind on HER3 extracellular domain and activates HER3 phosphorylation and down-stream signaling. Blocking ligand binding on HER3 by the selected rabbit HER3 monoclonal antibodies was determined using alpha screen format assay. NRG1 (R&D Systems) was biotinylated using a biotinylation kit (Fisher Scientific) and HER3 ECD was tagged with 10 histidine (His). Purified anti-HER3 Mabs were serially diluted two-fold into an assay buffer made from 25 mM Hepes, 100 mM NaCl, 0.5% BSA and 0.05% Tween20 in an opaque/white, half-well area plate (Costar). Rabbit IgG1 was used as a negative control. Biotinylated NRG-lbeta ligand and Her3/His₁₀ receptor were added sequentially at 10 nM concentration to the assay plate containing serially diluted antibodies. The mixture of receptor, ligand and the antibodies was incubated at room temperature with gentle shaking for 90 minutes. AlphaScreen Streptavidin Donor beads and His-Nickel Acceptor beads were added into the assay at a final concentration of 20 μg/ml each. The assay plates were covered with foil and incubated at room temperature with gentle shaking for 1 hour. The plates were read in EnVision plate reader.

[5] = target: T2, human HER3/ErbB3 extracellular domain; test: ELISA on human HER3 ECD
[6] = target: T4, Mouse HER3 ECD (mouse, UniProt Q61526 20-641); test: ELISA on mouse HER3 ECD
T4 construct: extracellular domain; also called mouse HER3 ECD domains
T4 sequence (Q61526 20-641): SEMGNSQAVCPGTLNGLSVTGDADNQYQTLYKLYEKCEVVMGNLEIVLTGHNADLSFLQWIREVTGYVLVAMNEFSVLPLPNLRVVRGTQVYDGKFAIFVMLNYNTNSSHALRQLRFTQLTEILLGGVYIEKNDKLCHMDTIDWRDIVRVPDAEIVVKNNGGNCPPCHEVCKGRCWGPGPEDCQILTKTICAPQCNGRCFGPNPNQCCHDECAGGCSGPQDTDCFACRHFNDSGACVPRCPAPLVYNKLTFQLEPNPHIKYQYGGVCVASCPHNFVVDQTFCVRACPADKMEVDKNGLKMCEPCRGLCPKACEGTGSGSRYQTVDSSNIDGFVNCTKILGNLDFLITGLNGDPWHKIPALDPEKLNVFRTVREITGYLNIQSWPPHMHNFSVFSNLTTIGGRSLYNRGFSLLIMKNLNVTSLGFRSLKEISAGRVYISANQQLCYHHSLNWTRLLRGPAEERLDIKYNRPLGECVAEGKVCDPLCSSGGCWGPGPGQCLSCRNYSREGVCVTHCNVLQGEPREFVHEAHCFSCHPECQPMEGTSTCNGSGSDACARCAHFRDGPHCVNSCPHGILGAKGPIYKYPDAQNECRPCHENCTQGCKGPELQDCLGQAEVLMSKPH

[7] = target: T1, human HER3 receptor on cells; test: cell-based or functional assay; remark: listed apart in the source
[8] = target: T2, human HER3/ErbB3 extracellular domain; test: SPR, Biacore T-100, HER3 ECD
[9] = target: T1, human HER3 receptor on cells; test: cell-based or functional assay; remark: listed apart in the source

T1 sequence (P21860 20-1342): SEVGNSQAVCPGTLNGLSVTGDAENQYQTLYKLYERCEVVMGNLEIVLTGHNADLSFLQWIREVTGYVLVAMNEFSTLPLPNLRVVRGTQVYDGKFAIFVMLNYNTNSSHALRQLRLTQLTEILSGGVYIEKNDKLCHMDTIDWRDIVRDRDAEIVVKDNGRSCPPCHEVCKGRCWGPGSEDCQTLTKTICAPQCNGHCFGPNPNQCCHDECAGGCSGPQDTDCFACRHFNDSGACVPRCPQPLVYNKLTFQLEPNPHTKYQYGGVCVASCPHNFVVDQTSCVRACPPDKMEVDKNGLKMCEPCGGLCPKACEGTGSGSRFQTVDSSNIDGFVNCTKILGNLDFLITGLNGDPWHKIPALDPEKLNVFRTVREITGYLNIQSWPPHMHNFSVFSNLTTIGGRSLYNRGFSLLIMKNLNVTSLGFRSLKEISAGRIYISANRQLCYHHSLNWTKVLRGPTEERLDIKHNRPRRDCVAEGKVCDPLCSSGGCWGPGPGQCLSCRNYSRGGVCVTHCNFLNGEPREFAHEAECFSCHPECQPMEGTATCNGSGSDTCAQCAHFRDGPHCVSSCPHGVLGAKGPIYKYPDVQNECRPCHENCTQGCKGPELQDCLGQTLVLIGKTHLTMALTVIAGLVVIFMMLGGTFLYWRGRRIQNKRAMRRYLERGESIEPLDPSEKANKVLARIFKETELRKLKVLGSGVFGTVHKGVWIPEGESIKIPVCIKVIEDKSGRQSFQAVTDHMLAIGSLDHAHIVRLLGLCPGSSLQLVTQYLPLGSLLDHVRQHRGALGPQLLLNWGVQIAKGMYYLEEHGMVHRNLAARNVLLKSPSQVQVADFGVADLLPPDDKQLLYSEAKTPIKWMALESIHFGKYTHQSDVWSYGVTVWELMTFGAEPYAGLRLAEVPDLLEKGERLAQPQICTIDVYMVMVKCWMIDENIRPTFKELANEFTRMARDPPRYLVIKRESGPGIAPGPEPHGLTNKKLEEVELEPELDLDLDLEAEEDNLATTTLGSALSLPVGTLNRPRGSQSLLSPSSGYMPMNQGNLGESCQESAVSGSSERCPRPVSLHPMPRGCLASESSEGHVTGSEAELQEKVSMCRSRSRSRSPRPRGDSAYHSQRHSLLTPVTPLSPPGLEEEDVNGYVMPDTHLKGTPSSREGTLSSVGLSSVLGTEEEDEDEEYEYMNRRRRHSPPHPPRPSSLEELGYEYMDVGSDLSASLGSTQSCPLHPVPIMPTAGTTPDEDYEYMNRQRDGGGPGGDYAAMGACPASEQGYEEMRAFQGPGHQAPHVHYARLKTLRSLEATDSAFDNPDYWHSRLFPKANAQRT

Binder | pAKT inhibition, EC50 (nM) [1] | pERK ½ inhibition, EC50 (nM) [1] | pHER3 inhibition, EC50 (nM) [1] | Kd [2] | % Receptor Internalization [3] | IC50 [4] | EC50 [5] | EC50 [6] | other results
HER3-hMab-A9 (antibody, V domains shown) VH: QVQLVESGGGLVQPGGSLRLSCSASGFSFSASYYIYWVRQAPGKGLEYIAYITGDDDKRTYYANWAKGRFTISRDNSKNTVYLQMNSLRAEDTAVYYCTRNLPDELWGPGTLVTVSS VL: DIQMTQTPSTLSASVGDRVTITCQSSESVYSYKNLAWYQQKPGKPPKLLIWQASRLSSGVPSRFSGSGSGTEFTLTISSLQPDDFATYYCQGTYYSSAWDFVFGGGTKVEIK | – | – | – | – | – | – | 3.1 ng/mL | 4.3 ng/mL | –
HER3-hMab-A11 (antibody, V domains shown) VH: QVQLVESGGGLVQPGGSLRLSCSASGFSFSASYYIYWVRQAPGKGLEYIAYITGDDDKRTYYANWAKGRFTISRDNSKNTVYLQMNSLRAEDTAVYYCTRNLPDELWGPGTLVTVSS VL: QAQMTQTPSTLSASVGDRVTITCQSSESVYSYKNLAWYQQKPGKPPKLLIWQASRLSSGVPSRFSGSGSGTEFTLTISSLQPDDFATYYCQGTYYSSAWDFVFGGGTKVEIK | – | – | – | – | – | – | 2.6 ng/mL | 7.9 ng/mL | –
HER3-hMab-A12 (antibody, V domains shown) VH: QVQLVESGGGLVQPGGSLRLSCSASGFSFSASYYIYWVRQAPGKGLEYIAYITGDDDKRTYYANWAKGRFTISRDTSKNTVYLQMNSLRAEDTAVYYCTRNLPDELWGPGTLVTVSS VL: QAQMTQTPSTLSASVGDRVTITCQSSESVYSYKNLAWYQQKPGKPPKLLIWQASRLSSGVPSRFSGSGSGTEFTLTISSLQPDDFATYYCQGTYYSSAWDFVFGGGTKVEIK | – | – | – | – | – | – | 2.4 ng/mL | 6.7 ng/mL | –
HER3-hMab-A10 (antibody, V domains shown) VH: QVQLVESGGGLVQPGGSLRLSCSASGFSFSASYYIYWVRQAPGKGLEYIAYITGDDDKRTYYANWAKGRFTISRDTSKNTVYLQMNSLRAEDTAVYYCTRNLPDELWGPGTLVTVSS VL: DIQMTQTPSTLSASVGDRVTITCQSSESVYSYKNLAWYQQKPGKPPKLLIWQASRLSSGVPSRFSGSGSGTEFTLTISSLQPDDFATYYCQGTYYSSAWDFVFGGGTKVEIK | – | – | – | – | – | – | 2.6 ng/mL | 5.4 ng/mL | pHER3 inhibition (IC50, µg/ml) [7]: 0.0173 µg/ml; Kd [8]: 1200 pM; koff [8]: 0.000169 s⁻¹; kon [8]: 141000 M⁻¹ s⁻¹; Inhibition of MCF-7 cancer cell proliferation (IC50, µg/ml) [9]: 0.181 µg/mL
Chi1210 (antibody, V domains shown, also called parental rabbit/human Fc chimera of Rab1210) VH: QEQLEESGGGLVQPEGSLTLTCTASGFSFSSSYWICWVRQAPGKGLELIGYIWSGNGATYYASWAKGRFTISKTSSTTVTLQMTSVTATDTATYFCARNYDASGYGIFHLWGPGTLVTVSS VL: AVVMTQTPASVSAAVGGTVTINCQASQSIVSSYLSWYQQKTGQPPKLLIYSASKLASGVPPRFSGSGSGTQFTLTISGVQCDDAATYYCLYGVDSSNIDNAFGGGTEVVVK | – | – | – | – | – | – | 2.6 ng/mL | – | pHER3 inhibition (IC50, µg/ml) [7]: 0.0035 µg/ml; Kd [8]: 1200 pM; koff [8]: 0.000644 s⁻¹; kon [8]: 538000 M⁻¹ s⁻¹; Inhibition of MCF-7 cancer cell proliferation (IC50, µg/ml) [9]: 0.084 µg/mL
HER3-hMab-A13 (antibody, V domains shown) VH: QVQLVESGGGLVQPGGSLRLSCSASGFSFSSSYWICWVRQAPGKGLEYIGYIWSGNGATYYASWAKGRFTISRDNSKNTVYLQMNSLRAEDTAVYFCARNYDASGYGIFHLWGPGTLVTVSS VL: DIQMTQTPSSLSASVGDRVTINCQASQSIVSSYLSWYQQKPGKPPKLLIYSASKLASGVPSRFSGSGSGTDFTLTISSLQPEDFATYYCLYGVDSSNIDNAFGGGTKVEIK | – | – | – | – | – | – | 2.5 ng/mL | – | –
HER3-hMab-A15 (antibody, V domains shown) VH: QVQLVESGGGLVQPGGSLRLSCSASGFSFSSSYWICWVRQAPGKGLEYIGYIWSGNGATYYASWAKGRFTISRDNSKNTVYLQMNSLRAEDTAVYFCARNYDASGYGIFHLWGPGTLVTVSS VL: AVQMTQTPSSLSASVGDRVTINCQASQSIVSSYLSWYQQKPGKPPKLLIYSASKLASGVPSRFSGSGSGTDFTLTISSLQPEDFATYYCLYGVDSSNIDNAFGGGTKVEIK | – | – | – | – | – | – | 2.4 ng/mL | – | –
HER3-hMab-A14 (antibody, V domains shown) VH: QVQLVESGGGLVQPGGSLRLSCSASGFSFSSSYWICWVRQAPGKGLELIGYIWSGNGATYYASWAKGRFTISRDTSKNTVYLQMNSLRAEDTAVYFCARNYDASGYGIFHLWGPGTLVTVSS VL: DIQMTQTPSSLSASVGDRVTINCQASQSIVSSYLSWYQQKPGKPPKLLIYSASKLASGVPSRFSGSGSGTDFTLTISSLQPEDFATYYCLYGVDSSNIDNAFGGGTKVEIK | – | – | – | – | – | – | 1.9 ng/mL | – | pHER3 inhibition (IC50, µg/ml) [7]: 0.0017 µg/ml; Kd [8]: 862 pM; koff [8]: 0.000174 s⁻¹; kon [8]: 201000 M⁻¹ s⁻¹; Inhibition of MCF-7 cancer cell proliferation (IC50, µg/ml) [9]: 0.232 µg/mL

Further lines, with some results ahead:

pAKT inhibition, EC50 (nM) [1] | pERK ½ inhibition, EC50 (nM) [1] | pHER3 inhibition, EC50 (nM) [1] | Kd [2] | % Receptor Internalization [3] | IC50 [4] | EC50 [5] | EC50 [6] | Binder | other results
2.3 nM | 3.8 nM | 1.8 nM | 160 pM | 60% | 520 pM | – | – | Rab774 (antibody, V domains shown, also called Rab774 monoclonal antibody) VH: QSVEESGGRLVTPGTPLTLTCTVSGIDLSTYAMTWVRRAPGKGLEWLGIINRSSKTYLTDWARGRFTISKTSTTVDLKISSPTTEDTATYFCGRVMSPYSVAGGDLWGPGTLVTVSS VL: QPVLTQSPSASAALGASAKLTCILSSDLSDYTIDWYKHQQGEAPRYLMQLRSDGSYTKGTGVPDRFSGSSSGADRYLVISSVQADDEADYYCGLPYSVEYVFGGGTQLTVT | –
3.8 nM | 6.2 nM | 3.5 nM | 7300 pM | 39% | 510 pM | – | – | Rab46 (antibody, V domains shown, also called Rab46 monoclonal antibody) VH: EEQLVESGGGLVQPEGSLTLTCTASGFSFSASYYIYWVRQAPGKGLEGIAYITGDDDKRTYYANWAKGRFTISKTSTTVTLQMTSLTAADTATYFCTRNLPDELWGPGTLVTVSS VL: QAVVTQTPSSVSAAVGGTVTISCQSSESVYSYKNLAWYQQKPGQPPRLLIWQASRLSSGVSSRFSGSGSGTQFTLTISGVQCDDAATYYCQGTYYSSAWDFVFGGGTEVMVE | –
0.4 nM | 1.3 nM | 0.7 nM | 1000 pM | 62% | 100 pM | – | – | Rab1210 (antibody, V domains shown, also called Rab1210 monoclonal antibody) VH: QEQLEESGGGLVQPEGSLTLTCTASGFSFSSSYWICWVRQAPGKGLELIGYIWSGNGATYYASWAKGRFTISKTSSTTVTLQMTSVTATDTATYFCARNYDASGYGIFHLWGPGTLVTVSS VL: AVVMTQTPASVSAAVGGTVTINCQASQSIVSSYLSWYQQKTGQPPKLLIYSASKLASGVPPRFSGSGSGTQFTLTISGVQCDDAATYYCLYGVDSSNIDNAFGGGTEVVVK | –
– | – | – | – | – | – | 2.3 ng/mL | – | HER3-hMab-A16 (antibody, V domains shown) VH: QVQLVESGGGLVQPGGSLRLSCSASGFSFSSSYWICWVRQAPGKGLELIGYIWSGNGATYYASWAKGRFTISRDTSKNTVYLQMNSLRAEDTAVYFCARNYDASGYGIFHLWGPGTLVTVSS VL: AVQMTQTPSSLSASVGDRVTINCQASQSIVSSYLSWYQQKPGKPPKLLIYSASKLASGVPSRFSGSGSGTDFTLTISSLQPEDFATYYCLYGVDSSNIDNAFGGGTKVEIK | –
3.6 nM | 5.5 nM | 1.7 nM | 3600 pM | 55% | 70 pM | – | – | Rab189 (antibody, V domains shown, also called Rab189 monoclonal antibody) VH: QESLEESGGDLVKPEGTLTLTCKASGIGFGYYYYICWVRQAPGKGLEWIACIYTGISDSTYYATWAKGRFAISKTSSTTVTLQMTSLTAADTATYFCARSDPYYTTTYTNTYPTYWNLWGPGTLVTVSS VL: CAFELTQTPSSVEAAVGGTVTIKCQASQSINNYLAWYQQKTGQPPKLLIYRASTLESGVPSRFKGSGSGTQFTLTISDLECADAATYYCQSYYYSSSNNYYNAFGGGTEVVVK | –
